Assay [1] deals with T1, GDF15-HIS (ACROBiosystems, CAT #: GD5-H5149) (human, UniProt Q99988 197-308).
T1 construct: Bought protein; also called GDF15 (ACROBiosystems, GD5-H5149); human GDF15; not shown: His tag
T1 sequence (looked up): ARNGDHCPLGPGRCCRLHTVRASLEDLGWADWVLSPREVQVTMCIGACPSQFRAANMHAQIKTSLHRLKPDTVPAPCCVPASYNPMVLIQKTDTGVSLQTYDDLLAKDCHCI
Description: ELISA, GDF15-HIS coated. As for the experimental part: The experiment was performed as detailed in Example 2, except that the coating protein was GDF15-HIS (ACROBiosystems, CAT #: GD5-H5149), and the antibodies to be tested (the humanized antibodies), negative control antibody (hIgG1), positive control antibodies Ponsegromab (Pfizer; Drug Bank: D11909) and AV380-hlgG1 (the heavy chain and light chain constant regions of AV380-mIgG1 were replaced with the constant regions of human IgG, i.e., SEQ ID NO. 5 and SEQ ID NO. 6) were added to each well of the coated plate.
In general terms: An ELISA detects its analyte on a solid surface through an enzyme-linked reagent.

Assay [2] has as its target T2, GDF15-mFC protein (human; mouse, UniProt Q99988 197-308).
T2 construct: extracellular domain;domain: IgG2a-FC; also called GDF15-mFc fusion protein
T2 sequence (looked up): T1 sequence (looked up)
The assay can be described thus: competitive ELISA, GFRAL-HIS coated (competitor), GDF15-mFc 0.3 µg/ml pre-incubated with antibody. The protocol:
GFRAL-HIS protein (ACROBiosystems, GFA-H52H3) was dissolved in PBS at a concentration of […] and was used to coat ELISA 96-well plate one day before blocking the plate with 2% BSA in PBS. 53E5 (hz), and control antibodies Ponsegromab and AV380-hIgG1 were 3.16-fold diluted for 10 gradients with a starting concentration of 20 μg/ml. At the same time, GDF15-mFc protein was added at a final concentration of 0.3 μg/ml. After incubation at room temperature for 1 hour, the mixtures were added to 96-well plate coated with GFRAL-HIS. After incubated at room temperature for 1 hour, the plate was washed and then HRP-anti-mouse IgG was added to the plate. After incubation at room temperature for 1 hour, the HRP enzyme activity (OD450) was detected. The HRP enzyme activity represents the relative amount of GDF15-mFc protein bound to GFRAL. The OD450 values and antibody concentrations were plotted. The dose-effect curve was fitted using the log (agonist) vs. response-variable slope (four-parameter) Logistic model to calculate IC50.

Assay [3] deals with T2, GDF15-mFC protein. The assay can be described thus: blocking ELISA as in Example 4, GFRAL-hIgG1 Fc coated (competitor), GDF15-mFC mixed with antibody. The protocol: (§1) A fusion protein comprising the extracellular region of GFRAL protein (Genbank accession number NM_207410.2) and human IgG1-FC (Genbank accession number CAC20454.1) was diluted to 1 g/ml with coating solution, followed by adding to ELISA plate at 50 μl/well and incubating at 4° C. overnight. The solution in the wells was discarded and the plate was washed 3 times with washing solution, each time for 3-5 minutes, and dried via tapping. 200 μl of blocking solution was added to each well followed by incubating at 4° C. overnight. The plate was washed 3 times with washing solution, and the coated plate may be stored at −20° C. or 4° C. for future use.
(§2) The antibodies to be tested, positive control antibody AV380-mIgG1 and blank control (PBS) were added to the wells. […] At the same time, GDF15-mFC protein (GDF15: Genbank accession number NM_004864.3; mFC: Genbank accession number AAH31470.1) was added at 20 ng/well and mixed with the antibodies to be tested. The wells were incubated at 37° C. for 1 hour, washed, and dried via tapping. Then the enzyme-labeled secondary antibody, horseradish peroxidase-labeled goat anti-mouse IgG (SIGMA, catalog number A9044-2 ml) was added to each well, at a dilution of 1:10000, 50-100 μl/well. The wells were incubated at 37° C. for 2 hours, washed, and dried via tapping. 100 μl of freshly prepared developing solution TMB was added to each well and incubated at 37° C. for 30 minutes. 2 mol/L H₂SO₄ was added to terminate the reaction, and the OD value was obtained on an enzyme-linked immunosorbent reader.
The experiment was performed as detailed in Example 4, except that the antibodies to be tested (the humanized antibodies), negative control antibody (hIgG1), and positive control antibodies Ponsegromab and AV380-hIgG1 were added to each well of the coated plate.

The target of assay [4] is T1, GDF15-HIS (ACROBiosystems, CAT #: …). Description: BLI (ForteBio Octet), antibody immobilised, GDF15 200-6.25 nM. In general terms: In BLI a coated tip is dipped into the sample, and binding shifts an interference pattern.
For assay [5] the target is unchanged. Description: cell-based or functional assay.
A further assay addresses T3, cynoGDF15-mFC (monkey (cyno); mouse, UniProt G7PWZ3 197-308).
T3 construct: also called monkey GDF15 (cynoGDF15)
T3 sequence (looked up): T1 sequence (looked up) with H6R, R21H, A54E, T63M, S64N, I112V
Description: ELISA, cynoGDF15-mFC coated. As for the experimental part: The experiment was performed as detailed in Example 2, except that the coating protein was cynoGDF15-mFC (GDF15: Genbank accession number EHH29815.1; mFC: Genbank accession number AAH31470.1), and the antibodies to be tested (the humanized antibodies), negative control antibody (hIgG1), and positive control antibodies Ponsegromab and AV380-hIgG1 were added to each well of the coated plate.

Assay [6] addresses T2, GDF15-mFC protein. Description: blocking ELISA, GFRAL-hIgG1 Fc coated (competitor), GDF15-mFC 20 ng/well mixed with antibody. The protocol:
as §1, §2

In assay [7] the target is T4, fusion protein comprising the extracellular region of human GDF15 protein and human IgG1-FC (human, UniProt Q99988 197-308, limits assumed).
T4 construct: extracellular domain
T4 sequence (looked up): T1 sequence (looked up)
Description: ELISA, human GDF15-hIgG1 Fc coated, HRP anti-mouse IgG. The protocol: as §1, with “human GDF15” for “GFRAL”, “NM_004864.3)” for “NM_207410.2)”, “[…]” for “g/ml”, “by” for “via”, “and incubated” for “followed by incubating”
(§3) The antibodies to be tested (purified antibodies from hybridoma, see Table 1), positive control antibody AV380-mIgG1 (its sequence is from Aveo Oncology; see SEQ ID NO. 1 and SEQ ID NO. 2 for its heavy chain and light chain variable regions, respectively; see SEQ ID NO. 3 and SEQ ID NO. 4 for its heavy chain and light chain constant regions, respectively) and blank control (PBS) were added to the wells. […] The wells were incubated at 37° C. for 1 hour, washed, and dried via tapping. Then the enzyme-labeled secondary antibody, horseradish peroxidase-labeled goat anti-mouse IgG (SIGMA, catalog number A9044-2 ml) was added to each well, at a dilution of 1:10000, 100 μl/well. The wells were incubated at 37° C. for 2 hours, washed, and dried via tapping. 100 μl of freshly prepared developing solution TMB was added to each well and incubated at 37° C. for 30 minutes.
(§4) 2 mol/L H₂SO₄ was added to terminate the reaction, and the OD values were read on enzyme-linked immunosorbent reader. The results were shown in Table 1-1, Table 1-2 and FIGS. 1-1 and 1-2.

Assay [8] has as its target T5, fusion protein comprising the extracellular region of monkey GDF15 protein and human IgG1-FC (monkey (cyno); human, UniProt G7PWZ3 197-308, limits assumed).
T5 construct: extracellular domain; also called cynoGDF15
T5 sequence (looked up): T1 sequence (looked up) with H6R, R21H, A54E, T63M, S64N, I112V
The assay can be described thus: ELISA, monkey GDF15-hIgG1 Fc coated, HRP anti-mouse IgG. As for the experimental part: as §3
(§5) The experiment was performed as detailed in Example 2, except that the fusion protein in Example 2 was replaced with a fusion protein comprising the extracellular region of monkey GDF15 protein (Genbank accession number EHH29815.1) and human IgG1-FC (Genbank accession number CAC20454.1). The results were shown in Table 2-1, Table 2-2 and FIGS. 2-1 and 2-2.

Assay [9] has as its target T4, fusion protein comprising the …. The assay can be described thus: ELISA, human GDF15-hIgG1 Fc coated, HRP anti-mouse IgG. The protocol:
as §1, with “human GDF15” for “GFRAL”, “NM_004864.3)” for “NM_207410.2)”, “[…]” for “g/ml”, “by” for “via”, “and incubated” for “followed by incubating”
as §3, §4
This is another data set of the same source.

Assay [10] addresses T5, fusion protein comprising the …. Description: ELISA, monkey GDF15-hIgG1 Fc coated, HRP anti-mouse IgG. As for the experimental part: as §3, §5
The source holds these as a separate data set.

Assay [11] deals with T2, GDF15-mFC protein. The assay can be described thus: blocking ELISA, GFRAL-hIgG1 Fc coated (competitor), GDF15-mFC 20 ng/well mixed with antibody. The protocol:
as §1, §2
This is another data set of the same source.

For assay [12], the target named is T1, GDF15-HIS (ACROBiosystems, CAT #: …). Description: BLI (ForteBio Octet), antibody immobilised, GDF15 200-6.25 nM. The source holds these as a separate data set.

The text below walks through data of US20250092124A1 (YUNNAN BAIYAO GROUP, published 2025).

Positions count from the first letter of the chain named. Read-outs that look alike come from different tables or passages of the source.

B1: AV380-hIgG1 (antibody)
heavy: not shown
light: DIQMTQSPASLSASVGETVTITCRTSENLHNYLAWYQQKQGKSPQLLVYDAKTLADGVPSRFSGSGSGTQYSLKINSLQPEDFGSYYCQHFWSSPYTFGGGTKLEIKRTVAAPSVFIFPPSDEQLKSGTASVVCLLNNFYPREAKVQWKVDNALQSGNSQESVTEQDSKDSTYSLSSTLTLSKADYEKHKVYACEVTHQGLSSPVTKSFNRGEC
notes: also called AV380-hlgG1
What is called EC50 is the concentration giving half of the maximal effect. For orientation: IC50 means the concentration that gives 50% inhibition. Usually Kd stands for the equilibrium constant for the complex coming apart. By koff is commonly meant the first-order rate constant of dissociation. What is called kon is the rate constant with which the complex forms. Regarding B1, in assay [1], the EC50 was 0.0823 mg/L and the OD450.Max worked out at 1.07 OD450. The molecule further registered a 50% inhibitory concentration (IC50) with GDF15-mFC protein [2] of 0.231 mg/L. The IC50 with GDF15-mFC protein [3] turned out to be 0.231 mg/L. In assay [4], this molecule came in with a Kd of 0.0845 nM, a dissociation rate constant (koff) of 6.91e-05 s⁻¹ and an on-rate (kon) of 817000 M⁻¹ s⁻¹. Moreover, in assay [5], the “Bottom (luciferase activity fold, fitted curve), HEK293 SRE-LUC2-cRET-GFRAL reporter cells” value stood at 1.03 and the “IC50, luciferase in HEK293 SRE-LUC2-cRET-GFRAL reporter cells stimulated with GDF15-His 5 ng/ml” value was 0.0447 mg/L. In addition, in the assay with cynoGDF15-mFC, the response was half-maximal at 0.0741 mg/L (EC50) and the OD450.Max was 1 OD450.

B2: AV380-mIgG1 (antibody)
heavy: EVLLQQSGPELVKPGASVKIPCKASGYTFTDYNMDWVKQSHGKSLEWIGQINPNNGGIFFNQKFKGKATLTVDKSSNTAFMEVRSLTSEDTAVYYCAREAITTVGAMDYWGQGTSVTVSSAKTTPPSVYPLAPGSAAQTNSMVTLGCLVKGYFPEPVTVTWNSGSLSSGVHTFPAVLQSDLYTLSSSVTVPSSTWPSETVTCNVAHPASSTKVDKKIVPRDCGCKPCICTVPEVSSVFIFPPKPKDVLTITLTPKVTCVVVDISKDDPEVQFSWFVDDVEVHTAQTQPREEQFNSTFRSVSELPIMHQDWLNGKEFKCRVNSAAFPAPIEKTISKTKGRPKAPQVYTIPPPKEQMAKDKVSLTCMITDFFPEDITVEWQWNGQPAENYKNTQPIMDTDGSYFVYSKLNVQKSNWEAGNTFTCSVLHEGLHNHHTEKSLSHSPGK
light: DIQMTQSPASLSASVGETVTITCRTSENLHNYLAWYQQKQGKSPQLLVYDAKTLADGVPSRFSGSGSGTQYSLKINSLQPEDFGSYYCQHFWSSPYTFGGGTKLEIKRADAAPTVSIFPPSSEQLTSGGASVVCFLNNFYPKDINVKWKIDGSERQNGVLNSWTDQDSKDSTYSMSSTLTLTKDEYERHNSYTCEATHKTSTSPIVKSFNRNEC
notes: also called positive control antibody AV380-mIgG1
On to B2, for which the IC50 with GDF15-mFC protein [6] amounted to 0.14 mg/L; with GDF15-mFC protein [11], 0.198 mg/L. Further, the EC50 was 0.0296 mg/L in assay [7], 0.0146 mg/L in assay [8], 0.0313 mg/L in assay [9] and 0.0258 mg/L in [10]. In addition, the Kd in [12] stood at 0.097 nM. Besides, the koff in [12] was determined as 0.000117 s⁻¹. Also, the kon in assay [12] stood at 1.2e+06 M⁻¹ s⁻¹.
